Key:
Ena/VASP proteins = test: cell-based or functional assay
[1] = target: Arp2/3 complex (endogenous, Jurkat T-cells); test: cell-based or functional assay
[2] = target: T1, zyxin (endogenous, Jurkat T-cells) (human, UniProt Q15942 2-572); test: co-immunoprecipitation from Jurkat T-cell lysate with WASP mAb 67B4, blot probed with zyxin mAb
T1 sequence (looked up): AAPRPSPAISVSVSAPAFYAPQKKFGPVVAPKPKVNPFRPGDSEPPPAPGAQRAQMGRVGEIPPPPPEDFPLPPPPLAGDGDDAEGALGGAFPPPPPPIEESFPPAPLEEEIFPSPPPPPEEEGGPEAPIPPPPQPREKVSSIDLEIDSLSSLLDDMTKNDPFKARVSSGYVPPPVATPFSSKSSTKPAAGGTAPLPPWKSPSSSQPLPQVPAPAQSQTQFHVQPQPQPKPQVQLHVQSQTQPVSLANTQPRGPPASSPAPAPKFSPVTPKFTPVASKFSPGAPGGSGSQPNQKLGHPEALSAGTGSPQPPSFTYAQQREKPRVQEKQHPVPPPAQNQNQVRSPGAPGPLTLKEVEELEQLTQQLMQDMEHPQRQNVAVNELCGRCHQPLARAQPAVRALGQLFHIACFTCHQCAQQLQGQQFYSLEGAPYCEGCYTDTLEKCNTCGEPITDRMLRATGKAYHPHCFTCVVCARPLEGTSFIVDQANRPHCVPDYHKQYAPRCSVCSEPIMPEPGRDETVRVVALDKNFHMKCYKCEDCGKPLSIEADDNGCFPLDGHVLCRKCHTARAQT
Procedure: After quick pelleting, stimulated and control cells were resuspended and incubated in DMEM/HEPES containing 15 λg/ml goat anti mouse IgG antibodies at 37° C. for 2 min. Jurkat NP-40 lysates were prepared at 1×10⁸ cells/ml in ice cold NP-40 lysis buffer (1% (v/v) NP-40, 150 mm NaCl, 10 mM Tris-Cl pH 7.8) supplemented with 60 μg/ml chymostatin, 10 g/ml pepstatin, 5 μg/ml leupeptin, 2 μg/ml aprotinin, 2 mM Pefabloc (Roche Diagnostics), 1 mM Na₃VO₄, and 10 mM NaF. […] Immunoprecipitations were carried out according to standard protocols using 0.2 ml of Jurkat NP-40 lysates derived from 2×10^7 cells.
Immunoprecipitates were resolved by SDS-PAGE. As positive control, Jurkat E6-1 lysates were used.

Row | Molecule | length of the contact zone between Jurkat T-cells and anti CD3-coated beads (Ena/VASP proteins) | length of the contact zone between the beads and Jurkat T-cells [1] | further results
1 | GFP-ActA-Repeats F>A | 5.16 µm |  | 
2 | myc-tagged ScarW (from UniProt Q92558 443-543) |  | 5 µm | 
3 | myc-tagged ScarWA (from UniProt Q92558 443-559) |  | 3.16 µm | 
4 | GFP-ActA-Repeats | 3.84 µm |  | 
5 | WASP (endogenous, Jurkat T-cells) (other, human, UniProt P42768 2-502, looked up) SGGPMGGRPGGRGAPAVQQNIPSTLLQDHENQRLFEMLGRKCLTLATAVVQLYLALPPGAEHWTKEHCGAVCFVKDNPQKSYFIRLYGLQAGRLLWEQELYSQLVYSTPTPFFHTFAGDDCQAGLNFADEDEAQAFRALVQEKIQKRNQRQSGDRRQLPPPPTPANEERRGGLPPLPLHPGGDQGGPPVGPLSLGLATVDIQNPDITSSRYRGLPAPGPSPADKKRSGKKKISKADIGAPSGFKHVSHVGWDPQNGFDVNNLDPDLRSLFSRAGISEAQLTDAETSKLIYDFIEDQGGLEAVRQEMRRQEPLPPPPPPSRGGNQLPRPPIVGGNKGRSGPLPPVPLGIAPPPPTPRGPPPPGRGGPPPPPPPATGRSGPLPPPPPGAGGPPMPPPPPPPPPPPSSGNGPAPPPLPPALVPAGGLAPGGGRGALLDQIRQGIQLNKTPGAPESSALQPPPQSSEGLVGALMHVMQKRSRAIHSSDEGEDQAGDEDEDDEWDD |  |  | binding result [2]: no binding

From US20020037286A1 (published 2002)
